Laboratory results as given in patent publication US10358672B2, “7-β-hydroxysteroid dehydrogenase mutants and process for the preparation of ursodeoxycholic acid” (Pharmazell GmbH, priority 2014, dated 2019).
Where a chain is given by its changes, count along the chain named. Names and notes keep the numbering of the source.

B1: Collinsella aerofaciens 7β-HSDH mutant [R64E], with His tag, SEQ ID NO:4 (Collinsella aerofaciens ATCC 25986; R64E) (protein)
chain: MNLREKYGEWGLILGATEGVGKAFCEKIAAGGMNVVMVGRREEKLNVLAGEIRETYGVETKVVEADFSQPGAAETVFAATEGLDMGFMSYVACLHSFGKIQDTPWEKHEAMINVNVVTFLKCFHHYMRIFAAQDRGAVINVSSMTGISSSPWNGQYGAGKAFILKMTEAVACECEGTGVDVEVITLGTTLTPSLLSNLPGGPQGEAVMKIALTPEECVDEAFEKLGKELSVIAGQRNKDSVHDWKANHTEDEYIRYMGSFYRDLEHHHHHH
B2: 7β-HSDH [R64E]: 7β-HSDH mutant, arginine (R) in position 64 replaced by glutamic acid (E); His tag, SEQ ID NO:4 (protein)
chain: B1 chain
modifications: His tag; 7-beta-HSDH R64E Mutant
B3: 7β-HSDH [G39S]: 7β-HSDH mutant which contains serine instead of glycine at position 39; His tag, SEQ ID NO:5 (protein)
chain: B1 chain with G39S, E64R
modifications: His tag; 7-beta-HSDH G39S Mutant
B4: Collinsella aerofaciens 7β-HSDH dual mutant [G39S/R64E], with His tag, SEQ ID NO:6 (Collinsella aerofaciens ATCC 25986; G39S/R64E) (protein)
chain: B1 chain with G39S
B5: Collinsella aerofaciens 7β-HSDH mutant [G39S], with His tag, SEQ ID NO:5 (Collinsella aerofaciens ATCC 25986; G39S) (protein)
chain: B1 chain with G39S, E64R
B6: 7β-HSDH [R64D]: 7β-HSDH mutant, arginine in position 64 exchanged for aspartic acid (D) (protein, UniProt A4ECA9 1-263, looked up, variant R64D)
7beta-hydroxysteroid …: MNLREKYGEWGLILGATEGVGKAFCEKIAAGGMNVVMVGRREEKLNVLAGEIRETYGVETKVVDADFSQPGAAETVFAATEGLDMGFMSYVACLHSFGKIQDTPWEKHEAMINVNVVTFLKCFHHYMRIFAAQDRGAVINVSSMTGISSSPWNGQYGAGKAFILKMTEAVACECEGTGVDVEVITLGTTLTPSLLSNLPGGPQGEAVMKIALTPEECVDEAFEKLGKELSVIAGQRNKDSVHDWKANHTEDEYIRYMGSFYRD
B7: 7β-HSDH [R64L]: 7β-HSDH mutant, R in position 64 replaced by L (protein, UniProt A4ECA9 1-263, looked up, variant R64L)
7beta-hydroxysteroid …: B6 7beta-hydroxysteroid … with D64L
B8: 7β-HSDH [R64V]: 7β-HSDH mutant, R in position 64 replaced by V (protein, UniProt A4ECA9 1-263, looked up, variant R64V)
7beta-hydroxysteroid …: B6 7beta-hydroxysteroid … with D64V
B9: 7β-HSDH [R64K]: 7β-HSDH mutant, R in position 64 replaced by K (protein, UniProt A4ECA9 1-263, looked up, variant R64K)
7beta-hydroxysteroid …: B6 7beta-hydroxysteroid … with D64K
B10: 7β-HSDH [R64I]: 7β-HSDH mutant, R in position 64 replaced by I (protein, UniProt A4ECA9 1-263, looked up, variant R64I)
7beta-hydroxysteroid …: B6 7beta-hydroxysteroid … with D64I
B11: 7β-HSDH [R64Y]: 7β-HSDH mutant, R in position 64 replaced by Y (protein, UniProt A4ECA9 1-263, looked up, variant R64Y)
7beta-hydroxysteroid …: B6 7beta-hydroxysteroid … with D64Y
B12: 7β-HSDH [R64W]: 7β-HSDH mutant, R in position 64 replaced by W (protein, UniProt A4ECA9 1-263, looked up, variant R64W)
7beta-hydroxysteroid …: B6 7beta-hydroxysteroid … with D64W
B13: 7β-HSDH [R64C]: 7β-HSDH mutant, R in position 64 replaced by C (protein, UniProt A4ECA9 1-263, looked up, variant R64C)
7beta-hydroxysteroid …: B6 7beta-hydroxysteroid … with D64C
B14: 7β-HSDH [R64P]: 7β-HSDH mutant, R in position 64 replaced by P (protein, UniProt A4ECA9 1-263, looked up, variant R64P)
7beta-hydroxysteroid …: B6 7beta-hydroxysteroid … with D64P
B15: 7β-HSDH [R64N]: 7β-HSDH mutant, R in position 64 replaced by N (protein, UniProt A4ECA9 1-263, looked up, variant R64N)
7beta-hydroxysteroid …: B6 7beta-hydroxysteroid … with D64N
B16: 7β-HSDH [R64G]: 7β-HSDH mutant, R in position 64 replaced by G (protein, UniProt A4ECA9 1-263, looked up, variant R64G)
7beta-hydroxysteroid …: B6 7beta-hydroxysteroid … with D64G
B17: 7β-HSDH [R64F]: 7β-HSDH mutant, R in position 64 replaced by F (protein, UniProt A4ECA9 1-263, looked up, variant R64F)
7beta-hydroxysteroid …: B6 7beta-hydroxysteroid … with D64F
B18: 7β-HSDH [R64S]: 7β-HSDH mutant, R in position 64 replaced by S (protein, UniProt A4ECA9 1-263, looked up, variant R64S)
7beta-hydroxysteroid …: B6 7beta-hydroxysteroid … with D64S
B19: 7β-HSDH [R64A]: 7β-HSDH mutant, R in position 64 replaced by A (protein, UniProt A4ECA9 1-263, looked up, variant R64A)
7beta-hydroxysteroid …: B6 7beta-hydroxysteroid … with D64A
B20: 7β-HSDH [T17S]: 7β-HSDH mutant, threonine at position 17 replaced by S (protein, UniProt A4ECA9 1-263, looked up, variant T17S)
7beta-hydroxysteroid …: B6 7beta-hydroxysteroid … with T17S, D64R
B21: 7β-HSDH [R64T]: 7β-HSDH mutant, R in position 64 replaced by T (protein, UniProt A4ECA9 1-263, looked up, variant R64T)
7beta-hydroxysteroid …: B6 7beta-hydroxysteroid … with D64T
B22: 7β-HSDH [T17F]: 7β-HSDH mutant, threonine at position 17 replaced by F (protein, UniProt A4ECA9 1-263, looked up, variant T17F)
7beta-hydroxysteroid …: B6 7beta-hydroxysteroid … with T17F, D64R

Key:
[1] = target: 7β-HSDH obtainable from Collinsella aerofaciens DSM 3979 (Collinsella aerofaciens, UniProt A4ECA9); conditions: cited from earlier work
[2] = substrate: C[C@H](CCC(=O)O)[C@H]1CC[C@H]2[C@@H]3C(=O)C[C@@H]4CC(=O)CC[C@]4(C)[C@H]3CC(=O)[C@]12C; test: cells, lysate or membranes named; conditions: other: purified enzyme, 340 nm, 50 mM KPi pH 8.0, substrate DHCA / cofactor NADPH
[3] = substrate: NC(=O)C1=CN([C@@H]2O[C@H](COP(=O)(O)OP(=O)(O)OC[C@H]3O[C@@H](n4cnc5c(N)ncnc54)[C@H](OP(=O)(O)O)[C@@H]3O)[C@@H](O)[C@H]2O)C=CC1; test: cells, lysate or membranes named; conditions: other: purified enzyme, 340 nm, 50 mM KPi pH 8.0, substrate DHCA / cofactor NADPH
[4] = Photometric activity determination of 7β-HSDH and mutants (decrease in absorbance at 340 nm, DHCA reduction with NADPH); format: biochemical; conditions: for activity compared with the wild-type enzyme: qualitative statement
Procedure: The activity of the 7β-HSDH and of the mutants was determined using a photometric assay, where the decrease in absorbance was measured at 340 nm over a period of 30 seconds.
The expression [R64E] in the first column of the table means that the arginine (R) in position 64 of the protein sequence had been replaced by glutamic acid (E) in the mutant in question. The respective amino acid is abbreviated using the international one-letter code. Analogously, [R64D] means that an aspartic acid has been introduced at this position.

[5] = Cofactor specificity of 7β-HSDH types (compilation of improvements); format: biochemical
[6] = Table 4, variants modified at position 64, 10 mM DHCA, NADPH, KPi pH 8.0
[7] = Table 9, variants modified at position 17

Sequence of 7β-HSDH obtainable from Collinsella aerofaciens DSM 3979 (A4ECA9 whole entry): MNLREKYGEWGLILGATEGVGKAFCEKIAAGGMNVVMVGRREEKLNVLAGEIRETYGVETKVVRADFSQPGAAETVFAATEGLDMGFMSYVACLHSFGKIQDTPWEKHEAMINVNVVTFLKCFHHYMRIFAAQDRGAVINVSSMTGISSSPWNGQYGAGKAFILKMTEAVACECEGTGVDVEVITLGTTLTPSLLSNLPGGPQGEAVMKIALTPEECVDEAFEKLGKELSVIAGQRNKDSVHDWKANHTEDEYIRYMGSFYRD

Molecule	Specific activity [4, 6]	Volumetric activity [4, 6]	also measured
NC(=O)C1=CN([C@@H]2O[C@H](COP(=O)(O)OP(=O)(O)OC[C@H]3O[C@@H](n4cnc5c(N)ncnc54)[C@H](OP(=O)(O)O)[C@@H]3O)[C@@H](O)[C@H]2O)C=CC1 [NADPH]			Vmax [1]: 33.44 U/mg Protein; kcat [1]: 1033.44
C[C@H](CCC(=O)O)[C@H]1CC[C@H]2[C@@H]3[C@@H](O)C[C@@H]4C[C@H](O)CC[C@]4(C)[C@H]3CC[C@]12C [UDCA, Ursodeoxycholic acid]			kcat [1]: 1179.39
C[C@H](CCC(=O)O)[C@H]1CC[C@H]2[C@@H]3C(=O)C[C@@H]4C[C@H](O)CC[C@]4(C)[C@H]3CC[C@]12C [Mutant 7-Keto-LCA, 7-keto-lithocholic acid]			Vmax [1]: 30.77 U/mg Protein; kcat [1]: 950.77
B1			Km [2]: 81.01 ± 18.9 µM; Vmax [2]: 41.6 µmol/min/mg; Km [3]: 45.48 ± 3.5 µM; Vmax [3]: 60.3 µmol/min/mg
B2	60.2 U/mg	892.7 U/ml	activity compared with the wild-type enzyme [4]: increase in the specific activity; Cofactor specificity [5]: NADPH
B3			Volumetric activity ([4]; text of example 3, position 39): 735 U/ml; specific enzymatic activity ([4]; text of example 3, position 39, per mg protein): 52.9 U/mg; Cofactor specificity [5]: NADPH
B4			Km [2]: 349.3 ± 5.23 µM; Vmax [2]: 54.3 µmol/min/mg; Km [3]: 76.6 ± 15.9 µM; Vmax [3]: 75.5 µmol/min/mg
B5			Km [2]: 352.4 ± 42.7 µM; Vmax [2]: 52 µmol/min/mg; Km [3]: 34.5 ± 6.6 µM; Vmax [3]: 48.8 µmol/min/mg
B6	32.1 U/mg	641.6 U/ml	activity compared with the wild-type enzyme [4]: increase in the specific activity
B7	20.9 U/mg	334 U/ml	
B8	15.1 U/mg	407.7 U/ml	
B9	15.1 U/mg	296.5 U/ml	
B10	9.83 U/mg	171 U/ml	
B11	9.7 U/mg	220.3 U/ml	
B12	10.1 U/mg	214 U/ml	
B13	14.19 U/mg	269.7 U/ml	
B14	19.1 U/mg	402.0 U/ml	
B15	0.6 U/mg	3.4 U/ml	
B16	12.36 U/mg	223 U/ml	
B17	10.5 U/mg	216 U/ml	
B18	20.1 U/mg	333.7 U/ml	
B19	13.77 U/mg	273 U/ml	
B20			Specific activity [4, 7]: 17.2 U/mg; Volumetric activity [4, 7]: 580 U/ml
B21	27.4 U/mg	450.5 U/ml	activity compared with the wild-type enzyme [4]: increase in the specific activity
B22			Specific activity [4, 7]: 46.1 U/mg; Volumetric activity [4, 7]: 645.2 U/ml; Cofactor specificity [5]: NADPH/low
